Earlier results in patent US20060183681A1, “Stabilized compositions containing natriuretic peptides” (Bio-Rad Laboratories, Inc., priority 2005, published 2006).

B-type natriuretic peptide [BNP]
half-life (t1/2) in vivo: approximately 23 minutes
